From article PMC7679444

Molecular target: GST-HA-ATG16L1(231–607), Q676U5
Test: peptide microarray
Conditions: chain shown with the change; 800, 600, 400 nM; n = 9; read off a plot

GST-HA-ATG16L1(231–607), Q676U5, sequence (Q676U5 231-607): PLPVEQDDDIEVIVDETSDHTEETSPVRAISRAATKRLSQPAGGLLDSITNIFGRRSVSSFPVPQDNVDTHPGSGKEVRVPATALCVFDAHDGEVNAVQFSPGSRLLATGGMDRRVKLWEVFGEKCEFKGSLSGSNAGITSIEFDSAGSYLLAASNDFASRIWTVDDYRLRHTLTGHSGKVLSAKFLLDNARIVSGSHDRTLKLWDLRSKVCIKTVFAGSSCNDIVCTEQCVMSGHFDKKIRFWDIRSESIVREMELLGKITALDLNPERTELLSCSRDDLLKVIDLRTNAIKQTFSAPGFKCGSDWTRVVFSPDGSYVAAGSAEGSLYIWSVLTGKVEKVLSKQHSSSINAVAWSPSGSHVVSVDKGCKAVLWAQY

B1: TMEM59 peptide (residues 268–280), wild type, Q9BXS4 V269del; P270del; S271del (peptide)
chain: YEKLSIYGDL
percent of parent: 160 % WT

B2: TMEM59 peptide (residues 268–280), wild type, Q9BXS4 K273del; S275del; I276del (peptide)
chain: YVPSELYGDL
percent of parent: 110 % WT
